The source of these data is IntAct's records for PubMed 26912900.

B1: 26S proteasome regulatory subunit RPN1 (Saccharomyces cerevisiae), P38764 (parent)
chain: MVDESDKKQQTIDEQSQISPEKQTPNKKDKKKEEEEQLSEEDAKLKTDLELLVERLKEDDSSLYEASLNALKESIKNSTSSMTAVPKPLKFLRPTYPDLCSIYDKWTDPNLKSSLADVLSILAMTYSENGKHDSLRYRLLSDVSDFEGWGHEYIRHLALEIGEVYNDQVEKDAEDETSSDGSKSDGSAATSGFEFSKEDTLRLCLDIVPYFLKHNGEEDAVDLLLEIESIDKLPQFVDENTFQRVCQYMVACVPLLPPPEDVAFLKTAYSIYLSQNELTDAIALAVRLGEEDMIRSVFDATSDPVMHKQLAYILAAQKTSFEYEGVQDIIGNGKLSEHFLYLAKELNLTGPKVPEDIYKSHLDNSKSVFSSAGLDSAQQNLASSFVNGFLNLGYCNDKLIVDNDNWVYKTKGDGMTSAVASIGSIYQWNLDGLQQLDKYLYVDEPEVKAGALLGIGISASGVHDGEVEPALLLLQDYVTNPDTKISSAAILGLGIAFAGSKNDEVLGLLLPIAASTDLPIETAAMASLALAHVFVGTCNGDITTSIMDNFLERTAIELKTDWVRFLALALGILYMGQGEQVDDVLETISAIEHPMTSAIEVLVGSCAYTGTGDVLLIQDLLHRLTPKNVKGEEDADEEETAEGQTNSISDFLGEQVNEPTKNEEAEIEVDEMEVDAEGEEVEVKAEITEKKNGESLEGEEIKSEEKKGKSSDKDATTDGKNDDEEEEKEAGIVDELAYAVLGIALIALGEDIGKEMSLRHFGHLMHYGNEHIRRMVPLAMGIVSVSDPQMKVFDTLTRFSHDADLEVSMNSIFAMGLCGAGTNNARLAQLLRQLASYYSREQDALFITRLAQGLLHLGKGTMTMDVFNDAHVLNKVTLASILTTAVGLVSPSFMLKHHQLFYMLNAGIRPKFILALNDEGEPIKVNVRVGQAVETVGQAGRPKKITGWITQSTPVLLNHGERAELETDEYISYTSHIEGVVILKKNPDYREEE
partner: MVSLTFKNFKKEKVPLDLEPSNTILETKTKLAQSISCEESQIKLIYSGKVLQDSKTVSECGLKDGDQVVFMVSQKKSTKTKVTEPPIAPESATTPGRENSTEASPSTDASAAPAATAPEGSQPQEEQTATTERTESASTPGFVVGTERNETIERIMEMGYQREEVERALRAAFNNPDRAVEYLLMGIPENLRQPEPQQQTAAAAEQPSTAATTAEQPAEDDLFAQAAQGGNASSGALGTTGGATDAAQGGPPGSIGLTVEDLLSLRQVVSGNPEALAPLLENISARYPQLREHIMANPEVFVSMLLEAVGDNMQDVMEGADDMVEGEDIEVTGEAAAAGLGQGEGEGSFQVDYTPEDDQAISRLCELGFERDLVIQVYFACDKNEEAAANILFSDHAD

In the assay the parent is B1. The conditions noted are these: with rad23_yeast RAD23, P32628.
As to D541A;D548R;E552R, the “effect of a mutation on the interaction” value was “disrupting interaction strength”.
